Measured values as given in patent US20080311034A1 (published 2008).

Columns and labels:
[1] = molecular target: T1, recombinant human FcγRIIb (R&D Systems #1875-CD-050) (human, UniProt P31994 46-217, limits assumed); test: AlphaScreen
T1 construct: Bought; also called CD32b; recombinant, soluble, human FcγRIIb
T1 sequence (looked up): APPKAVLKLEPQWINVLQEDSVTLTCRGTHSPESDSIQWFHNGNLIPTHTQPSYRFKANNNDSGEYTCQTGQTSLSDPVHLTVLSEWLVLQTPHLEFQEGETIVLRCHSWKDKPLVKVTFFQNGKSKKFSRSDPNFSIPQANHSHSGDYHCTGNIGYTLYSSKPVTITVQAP
Procedure: (§1) FcγRIIa (CD32a) AlphaScreen—Nickel acceptor beads (Perkin Elmer #6760619C) were diluted 1:50 in assay buffer (PBS, pH 7.4, 4 mg/ml BSA, 0.01% Tween-20), and 27.5 μl were added to each well of a Nunc V-bottom polypropylene plate (VWR # 62409-108) (Powers G., Notebook 9006, pp. 169-175, 182-185). A 2.0 μg/ml solution of recombinant human His-tagged FcγRIIa (R&D Systems #1330-CD-050) was prepared in assay buffer and 27.5 μl added to each well of a separate Nunc V bottom polypropylene plate. Titrations of test Abs were prepared in the Nunc V bottom polypropylene plate starting at 30 μg/ml. A 2 μg/ml solution of biotinylated goat F(ab′)₂ anti-human IgG F(ab′)₂ (Jackson Immunoresearch #109-066-097) was prepared in assay buffer and 27.5 μl added to each well of another Nunc V bottom polypropylene plate. A 1:50 dilution of streptavidin donor beads (PerkinElmer # 6760002) was prepared in assay buffer and 27.5 μl added to each well of another Nunc V bottom polypropylene plate. A volume of 5 μl of each reagent was added to the corresponding quadrants of a low-volume, non-binding white 384-well plate (Corning # 3673) in the following order: acceptor beads, FcγRIIa, test Ab, biotinylated anti-human IgG F(ab′)₂, and streptavidin donor beads. The plates were incubated for 30 minutes with shaking and the O.D.s determined using an Envision plate reader.
(§2) FcγRIIb (CD32b) AlphaScreen—The assay was performed as described above for FcγRIIa except that FcγRIIa was replaced with FcγRIIb (R&D Systems #1875-CD-050).

[2] = molecular target: T2, recombinant human His-tagged FcγRIIa (R&D Systems #1330-CD-050) (human, UniProt P12318 36-218, limits assumed); test: AlphaScreen
T2 construct: Bought; also called CD32a; recombinant, soluble, human FcγRIIa
T2 sequence (looked up): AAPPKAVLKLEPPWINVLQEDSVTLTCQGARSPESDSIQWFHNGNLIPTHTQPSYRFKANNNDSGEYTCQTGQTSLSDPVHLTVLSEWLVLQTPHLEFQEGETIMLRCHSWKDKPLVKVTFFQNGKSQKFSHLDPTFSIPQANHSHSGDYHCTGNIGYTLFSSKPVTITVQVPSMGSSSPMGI
Procedure: as §1, §2

[3] = molecular target: T3, recombinant human His-tagged FcγRI (extracellular domain, R&D Systems #1257-FC-050) (human, UniProt P12314 16-292); test: ELISA
T3 construct: extracellular domain; Bought; also called CD64; recombinant, soluble, human FcγRI
T3 sequence (P12314 16-292): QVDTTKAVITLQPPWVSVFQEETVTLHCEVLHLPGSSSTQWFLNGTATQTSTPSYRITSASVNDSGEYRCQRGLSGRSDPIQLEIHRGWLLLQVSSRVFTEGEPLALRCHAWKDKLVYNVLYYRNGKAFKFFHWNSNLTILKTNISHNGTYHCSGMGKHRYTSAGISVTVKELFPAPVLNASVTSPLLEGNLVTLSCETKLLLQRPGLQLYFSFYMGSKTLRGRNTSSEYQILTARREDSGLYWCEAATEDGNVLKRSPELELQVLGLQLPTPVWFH
Procedure: FcγRI (CD64) ELISA —50 μl of a 1 μg/ml solution of recombinant human His-tagged FcγRI (extracellular domain, R&D Systems #1257-FC-050) in ELISA buffer (PBS, pH 7.4, 4 mg/ml BSA, 0.01% Tween-20) was added to each well of HisGrab 96 well plates (Pierce #15142) (Powers G., Notebook 9006, pp. 166-168, 180-181). The plate was incubated with shaking for 3 hours. The plates were washed 3× with 300 μl of wash buffer (PBS, 0.01% Tween-20) on a plate washer. Serial dilutions of the CNTO860 antibody Fc-variant samples were made in ELISA buffer and 50 μl per well of each titration were added in duplicate to the FcγRI-coated plates. The plates were incubated with shaking for 1 hour. The plates were washed 3× with 300 μl of wash buffer on a plate washer. 50 μl of a 1:10,000 dilution of HRP-labeled goat F(ab′)₂ anti-human IgG F(ab′)₂ (Jackson Immunoresearch # 109-036-097) in ELISA buffer was added to each well. The plates were incubated with shaking for 30 minutes. The plates were washed 3× with 300 μl of wash buffer on the plate washer. 50 μl per well TMB substrate (RDI #RDI-TMBSU-1L) was added to each well and developed for 5 minutes. The reaction was stopped by adding 100 μl 0.2 N sulfuric acid. The plates were read at OD450 on an Envision plate reader.
FcγRIIIa (CD16a) ELISA—A human FcγRIIIa binding assay was done in ELISA format similar to the assay for FcγRI above. 50 μl of a 2 μg/ml solution of recombinant human His-tagged FcγRIIIa (extracellular domain made at Centocor) in ELISA buffer (PBS, 4 mg/ml BSA, 0.01% Tween-20) was added to each well of HisGrab 96 well plates (Pierce #15142) (Powers G., Notebook 10378, 19-23). The plate was incubated for 3 hours at room temp. The plates were blocked with 200 μl of Starting Block (Pierce #15142) for 30 min, and then washed 3× with 300 μl of wash buffer (PBS, 0.01% Tween-20) on a plate washer. Serial dilutions of the CNTO 860 test samples were made in Starting Block buffer and 50 μl per well of each titration were added in duplicate to the FcγRIIIa-coated plates. The plates were incubated for 1 hour. The plates were washed 3× with 300 μl of wash buffer on a plate washer. 50 μl of a 1:10,000 dilution of HRP-labeled goat F(ab′)2 anti-human IgG F(ab′)2 (Jackson Immunoresearch # 109-036-097) in Starting Block buffer was added to each well. The plates were incubated for 30 minutes.

fold reduced binding [1]: 500 fold | fold reduced binding [2]: 8 fold | fold reduced binding [3]: < 2 fold
B1: YB2/0-CNTO 860 A330I (antibody, IgG1)
heavy: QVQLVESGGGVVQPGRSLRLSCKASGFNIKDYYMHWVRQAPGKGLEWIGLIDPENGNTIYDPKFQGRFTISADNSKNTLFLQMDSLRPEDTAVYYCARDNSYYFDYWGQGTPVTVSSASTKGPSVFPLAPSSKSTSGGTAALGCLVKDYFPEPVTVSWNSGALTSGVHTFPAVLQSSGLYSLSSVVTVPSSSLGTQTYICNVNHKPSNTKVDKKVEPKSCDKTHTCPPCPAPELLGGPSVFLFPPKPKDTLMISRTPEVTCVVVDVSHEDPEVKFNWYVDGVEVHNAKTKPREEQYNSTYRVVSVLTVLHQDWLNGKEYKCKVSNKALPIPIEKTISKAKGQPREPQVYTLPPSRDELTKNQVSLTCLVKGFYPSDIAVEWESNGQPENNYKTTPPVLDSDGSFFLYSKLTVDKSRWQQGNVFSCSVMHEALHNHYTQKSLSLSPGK
light: DIQMTQSPSSLSASVGDRVTITCKASQDIRKYLNWYQQKPGKAPKLLIYYATSLADGVPSRFSGSGSGTDYTFTISSLQPEDIATYYCLQHGESPYTFGQGTKLEITRTVAAPSVFIFPPSDEQLKSGTASVVCLLNNFYPREAKVQWKVDNALQSGNSQESVTEQDSKDSTYSLSSTLTLSKADYEKHKVYACEVTHQGLSSPVTKSFNRGEC
modifications: N-linked glycan at heavy chain Asn297 (YB2/0-type, low fucose); not carried by the letters
notes: IgG1/kappa Fc variant; stably expressed in YB2/0 cells (p4177/p2402); EU numbering; also called A330I (YB2/0 cell-derived); A330I mutant expressed in YB2/0 cells; copies: 2 + 2
